Sequences and labels used below:
B1: Azoarcus group I ribozyme (parent)
chain: GUGCCUUGCGCCGGGAAACCACGCAAGGGAUGGUGUCAAAUUCGGCGAAACCUAAGCGCCCGCCCGGGCGUAUGGCAACGCCGAGCCAAGCUUCGGCGCCUGCGCCGAUGAAGGUGUAGAGACUAGACGGCACCCACCUAAGGCAAACGCUAUGGUGAAGGCAUAGUCCAGGGAGUGGCGAAAGUCACACAAACCGG

The variants in the data set derive from B1. Description: reverse-splicing fitness (ratio to wild type); higher = more active; in vitro selection; Mg2+ level not given. In outline:
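An in vitro group I ribozyme library with randomized positions was T7-transcribed and gel-purified. In triplicate, 10 pmol RNA in EPPS pH 7.5 was reacted with 50 pmoles of a 30-nt RNA substrate for 1 h at 37 °C across several added MgCl2 levels (1–48 mM), then stopped with EDTA. Products were reverse transcribed from a substrate-complementary primer, PCR-amplified and sequenced (HiSeq 4000). Fitness is a variant's read proportion after selection over that before, normalised to wild type.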
On to C82U A111U A120U A145G U176C, for which the reverse-splicing fitness came out at 0.0112.
Consider C82U A111U A120U A145G U176G, for which the reverse-splicing fitness came out at 0.00331.
With C82U A111U A120U A145G U176A, the reverse-splicing fitness was determined as 0.00732.
Take C82U A111U A120G A145C C169U U176A: the reverse-splicing fitness worked out at 0.0194.
As for C82U A111U A120G A145C C169U U176G, the reverse-splicing fitness came out at 0.00376.
Regarding C82U A111U A120G A145C C169U U176C, the reverse-splicing fitness came to 0.0108.
Take C82U A111U A120G A145U C150A C169U U176A: the reverse-splicing fitness was 0.0203.
For C82U A111U A120G A145U C150A C169U U176C, the reverse-splicing fitness amounted to 0.0141.
In the case of C82U A111U A120G A145U C150A C169U U176G, the reverse-splicing fitness was 0.00425.
Take C82U A111U A120G C150G C169A U176C: the reverse-splicing fitness worked out at 0.00855.
With C82U A111U A120G C150G C169A U176A, the reverse-splicing fitness was 0.00906.
C82U A111U A120G C150G C169A U176G: the reverse-splicing fitness is 0.00664.
In the case of C82U A111U A120U A145G C169G U176A, the reverse-splicing fitness amounted to 0.00271.
C82U A111U A120U A145G C169G U176C: the reverse-splicing fitness is 0.0035.
The same measure for C82U A111U A120U A145G C169G U176G: 0.00146; for C82U A111U A120U A145G C150A C169U: 0.00374.
As for C82U A111U A120U A145G C150A C169G, the reverse-splicing fitness was 0.00478.
Take C82U A111U A120U A145G C150A C169A: the reverse-splicing fitness came to 0.00571.
For C82U A111U A120G A145U C150G C169U, the reverse-splicing fitness stood at 0.00779.
Regarding C82U A111U A120G A145U C150G C169G, the reverse-splicing fitness stood at 0.00671.
In the case of C82U A111U A120G A145U C150G C169A, the reverse-splicing fitness was determined as 0.00759.
Turning to C82U A111U A120U A145G C150U, the reverse-splicing fitness stood at 0.022.
To C82U A111U A120U A145G C150G belongs 0.00817.
Turning to C82U A111U A120U A145G C150A, the reverse-splicing fitness came to 0.00852.
For the variant C82U A111U A120G A145G C150A C169G U176C, the reverse-splicing fitness was found to be 0.0253.
C82U A111U A120G A145G C150A C169G U176A: the reverse-splicing fitness was 0.0152.
In the case of C82U A111U A120G A145G C150A C169G U176G, the reverse-splicing fitness came to 0.00481.
For C82U A111U A120G A145U C150G U176A, the reverse-splicing fitness is 0.00538.
Turning to C82U A111U A120G A145U C150G U176C, the reverse-splicing fitness stood at 0.00777.
Consider C82U A111U A120G A145U C150G U176G, for which the reverse-splicing fitness is 0.00302.
Regarding C82U A111U A120U A145C C150G C169A, the reverse-splicing fitness turned out to be 0.00266.
To C82U A111U A120U A145C C150G C169G belongs 0.00307.
Regarding C82U A111U A120U A145C C150G C169U, the reverse-splicing fitness came out at 0.00284.
For C82U A111U A120U A145G C150G C169G U176A, the reverse-splicing fitness stood at 0.00749.
Consider C82U A111U A120U A145G C150G C169G U176C, for which the reverse-splicing fitness was determined as 0.00477.
To C82U A111U A120U A145G C150G C169G U176G belongs 0.00365.
Regarding C82U A111U A120U, the reverse-splicing fitness stood at 0.0242.
Take C82U A111U A120U A145C C150U C169G: the reverse-splicing fitness is 0.00276.
In the case of C82U A111U A120U A145C C150U C169U, the reverse-splicing fitness was determined as 0.00288.
As for C82U A111U A120U A145C C150U C169A, the reverse-splicing fitness is 0.0022.
As for C82U A111U A120U A145C C150U C169A U176A, the reverse-splicing fitness amounted to 0.00217.
On to C82U A111U A120U A145C C150U C169A U176C, for which the reverse-splicing fitness stood at 0.00253.
Consider C82U A111U A120U A145C C150U C169A U176G, for which the reverse-splicing fitness was found to be 0.00178.
The same measure for C82U A111U A120U A145C C150G C169G U176C: 0.00216; for C82U A111U A120U A145C C150G C169G U176A: 0.00245; for C82U A111U A120U A145C C150G C169G U176G: 0.00175.
For the variant C82U A111U A120G C150A C169G U176C, the reverse-splicing fitness stood at 0.0213.
For the variant C82U A111U A120G C150A C169G U176G, the reverse-splicing fitness is 0.00529.
For C82U A111U A120G C150A C169G U176A, the reverse-splicing fitness was determined as 0.0221.
Take C82U A111U A120G A145G C150G U176C: the reverse-splicing fitness is 0.00919.
In the case of C82U A111U A120G A145G C150G U176A, the reverse-splicing fitness was 0.0062.
As to C82U A111U A120G A145G C150G U176G, the reverse-splicing fitness was found to be 0.00543.
Turning to C82U A111U A120U A145C C169A U176G, the reverse-splicing fitness is 0.00173.
The same measure for C82U A111U A120U A145C C169A U176C: 0.00199.
Consider C82U A111U A120U A145C C169A U176A, for which the reverse-splicing fitness worked out at 0.00226.
As for C82U A111U A120G A145G C150G, the reverse-splicing fitness was determined as 0.00732.
To C82U A111U A120G A145G C150A belongs 0.00801; to C82U A111U A120G A145G C150U, 0.0119; to C82U A111U A120U A145G C169A U176A, 0.00289.
With C82U A111U A120U A145G C169A U176G, the reverse-splicing fitness was determined as 0.00171.
Consider C82U A111U A120U A145G C169A U176C, for which the reverse-splicing fitness turned out to be 0.00291.
The same measure for C82U A111U A120G A145G C150A C169A U176A: 0.0153; for C82U A111U A120G A145G C150A C169A U176C: 0.02; for C82U A111U A120G A145G C150A C169A U176G: 0.00564.
To C82U A111U A120G C150A U176G belongs 0.00633.
In the case of C82U A111U A120G C150A U176C, the reverse-splicing fitness stood at 0.0164.
Take C82U A111U A120G C150A U176A: the reverse-splicing fitness stood at 0.0114.
To C82U A111U A120G C150G U176A belongs 0.00524; to C82U A111U A120G C150G U176C, 0.00776; to C82U A111U A120G C150G U176G, 0.00288.
With C82U A111U A120G A145U C169A U176C, the reverse-splicing fitness was 0.0101.
Take C82U A111U A120G A145U C169A U176G: the reverse-splicing fitness was 0.00391.
On to C82U A111U A120G A145U C169A U176A, for which the reverse-splicing fitness came to 0.0113.
For the variant C82U A111U A120U A145G C150U C169A U176G, the reverse-splicing fitness is 0.00269.
Turning to C82U A111U A120U A145G C150U C169A U176A, the reverse-splicing fitness is 0.00543.
Consider C82U A111U A120U A145G C150U C169A U176C, for which the reverse-splicing fitness turned out to be 0.0032.
C82U A111U A120G U176A: the reverse-splicing fitness was 0.0123.
To C82U A111U A120G U176C belongs 0.0165; to C82U A111U A120G U176G, 0.00474; to C82U A111U A120G A145U C169U, 0.00798.
Turning to C82U A111U A120G A145U C169A, the reverse-splicing fitness was 0.00696.
To C82U A111U A120G A145U C169G belongs 0.00838.
Consider C82U A111U A120U A145G C169U U176C, for which the reverse-splicing fitness was found to be 0.00323.
C82U A111U A120U A145G C169U U176G: the reverse-splicing fitness was found to be 0.00207.

The record behind these values is the RNAGym collection of RNA variant scans (doi:10.1093/molbev/msab373).
